US20240360228A1 (BIOLEGEND, published 2024)
Substitutions are numbered along the chain they refer to.

B1: AB12 (antibody, V domains shown)
VH: EVQLVESGGGLVQPKGSLKLSCAASGFAFNTYAMNWVRQAPGKGLEWIARLRSKSNFYATYYADSVKDRFTISRDDSQSMLYLQMNNLKTEDTAVYYCVRGRELGPSYAMDYWGQGTSVTVSS
VL: DIVMTQAAPSVPVTPGESVSISCRSSKSLLHSNGNTYLYWFLQRPGQSPQLLIYRMSNLASGVPDRFSGSGSGTAFTLRISRVEAEDVGVYYCMQHLEYPYTFGGGTKLEIK
notes: Hybridoma monoclonal; also called antibody 12; clone 12
B2: AB1 (antibody, V domains shown)
VH: QVQLKESGPGLVKPSETLSLTCTVSGFSLTSYHISWVRQPPGKGLEWMGVIWGDGSKTYNSALKSRLSISRDTSKSQVFLKMRSLKTEDTATYYCARGGDSGFAYWGQGTLVTVSS
VL: DIQMTQSPASLSASLEEIVTITCQASQDIGNWLSWYQQKPGKSPQLLIYGTTNLADGVPSRFSGSRSGTQYSLKISRLQVEDIGIYYCLQAYSVPLTFGSGTKLEIK
notes: Hybridoma monoclonal (mice or rats immunised); Used purified and PE-conjugated; also called antibody 1; clone 1
B3: AB2 (antibody, V domains shown)
VH: B2 VH
VL: B2 VL
notes: Hybridoma monoclonal; also called antibody 2; clone 2
B4: AB4 (antibody, V domains shown)
VH: B2 VH with S31G, I34V, S56R, K57T, R83S
VL: B2 VL with T51A, N53S, Y71F, S93I, I106S
notes: Hybridoma monoclonal; also called antibody 4; clone 4
B5: AB3 (antibody, V domains shown)
VH: B2 VH with S56K, K57T, R83N
VL: B2 VL
notes: Hybridoma monoclonal; also called antibody 3; clone 3

Legend:
[1] = target: T1, human chemokine (C-C motif) receptor 8 (CCR8) (human, UniProt P51685 1-355); assay: cell-based or functional assay
T1 sequence (P51685 whole entry): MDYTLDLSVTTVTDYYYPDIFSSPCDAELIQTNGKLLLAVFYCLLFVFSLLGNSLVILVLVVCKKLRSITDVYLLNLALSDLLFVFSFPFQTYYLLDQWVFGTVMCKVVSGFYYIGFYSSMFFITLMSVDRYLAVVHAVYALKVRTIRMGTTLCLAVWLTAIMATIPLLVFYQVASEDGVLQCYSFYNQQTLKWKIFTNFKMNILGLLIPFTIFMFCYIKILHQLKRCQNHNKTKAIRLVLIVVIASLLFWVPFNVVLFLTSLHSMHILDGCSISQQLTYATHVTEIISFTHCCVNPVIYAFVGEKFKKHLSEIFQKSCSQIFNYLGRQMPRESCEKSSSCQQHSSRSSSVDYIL

[2] = target: T1, human chemokine (C-C motif) receptor 8 …; assay: flow cytometry blocking, PBMC CCR8+ CD4+ cells; competitor PE-AB1 (its MFI is read)
Experimental: (§1) For blocking studies, 100 μL of the cell suspension were incubated with 10 μg purified isotype control, AB1, AB2, AB3, AB4, AB5, AB8, AB9, AB10, AB11, AB12, AB13, AB14, AB15, and Commercial ABI antibodies, or isotype control, as blocking agents.
(§2) After incubation with the blocking agent, the cells were incubated with 0.25 μg of the indicated PE-conjugated antibody plus anti-human CD4 APC or anti-human CD3 for another 15 minutes in the dark and then washed 2 times with Cell Staining Buffer, and acquired in a FACSCanto II flow cytometer (BD Biosciences); the data was analyzed using FCS Express (De Novo Software); MFI correspond to the CCR8+ CD4+ lymphocytes or CCR8+ CD3+ lymphocytes.
(§3) Percentage original MFI was calculated by dividing the MFI of samples blocked with AB1, AB2, AB3, AB4, AB5, AB6, AB7, AB8, AB9, AB10, AB11, AB12, AB13, AB14, AB15, and Commercial ABI antibodies, by the MFI of samples blocked with the corresponding isotype control. This value was subtracted from 100 to get a blocking percentage. The formula is shown below: […]

[3] = target: T1, human chemokine (C-C motif) receptor 8 …; assay: flow cytometry blocking, PBMC CCR8+ CD4+ cells; competitor PE-AB2 (its MFI is read)
Experimental: as §1, §2, §3

[4] = target: T1, human chemokine (C-C motif) receptor 8 …; assay: flow cytometry blocking, PBMC CCR8+ CD4+ cells; competitor PE-AB3 (its MFI is read)
Experimental: as §1, §2, §3

[5] = target: T1, human chemokine (C-C motif) receptor 8 …; assay: flow cytometry blocking, PBMC CCR8+ CD4+ cells; competitor PE-AB4 (its MFI is read)
Experimental: as §1, §2, §3

[6] = target: T1, human chemokine (C-C motif) receptor 8 …; assay: flow cytometry blocking, PBMC CCR8+ CD4+ cells; competitor PE-AB5 (its MFI is read)
Experimental: as §1, §2, §3

[7] = target: T1, human chemokine (C-C motif) receptor 8 …; assay: flow cytometry blocking, PBMC CCR8+ CD4+ cells; competitor PE-AB6 (its MFI is read)
Experimental: as §1, §2, §3

[8] = target: T1, human chemokine (C-C motif) receptor 8 …; assay: flow cytometry blocking, PBMC CCR8+ CD4+ cells; competitor PE-AB10 (its MFI is read)
Experimental: as §1, §2, §3

[9] = target: T1, human chemokine (C-C motif) receptor 8 …; assay: flow cytometry blocking, PBMC CCR8+ CD4+ cells; competitor PE-AB11 (its MFI is read)
Experimental: as §1, §2, §3

[10] = target: T1, human chemokine (C-C motif) receptor 8 …; assay: flow cytometry blocking, PBMC CCR8+ CD4+ cells; competitor PE-AB12 (its MFI is read)
Experimental: as §1, §2, §3

[11] = target: T1, human chemokine (C-C motif) receptor 8 …; assay: flow cytometry blocking, PBMC CCR8+ CD4+ cells; competitor PE-AB13 (its MFI is read)
Experimental: as §1, §2, §3

[12] = target: T1, human chemokine (C-C motif) receptor 8 …; assay: flow cytometry blocking, PBMC CCR8+ CD4+ cells; competitor PE-AB14 (its MFI is read)
Experimental: as §1, §2, §3

[13] = target: T1, human chemokine (C-C motif) receptor 8 …; assay: flow cytometry blocking, PBMC CCR8+ CD4+ cells; competitor PE-AB15 (its MFI is read)
Experimental: as §1, §2, §3

[14] = target: T1, human chemokine (C-C motif) receptor 8 …; assay: flow cytometry blocking, PBMC CCR8+ CD4+ cells; competitor PE-ABII (its MFI is read)
Experimental: as §1, §2, §3

Row | Binder | % hCCR8-Ba/F3 - THP-1 complexes [1] [%] | % Blocking [2] [%] | MFI [2] | % Blocking [3] [%] | MFI [3] | % Blocking [4] [%] | MFI [4] | % Blocking [5] [%] | MFI [5] | % Blocking [6] [%] | MFI [6] | % Blocking [7] [%] | MFI [7] | % Blocking [8] [%] | MFI [8] | % Blocking [9] [%] | MFI [9] | % Blocking [10] [%] | MFI [10] | % Blocking [11] [%] | other results
1 | B1 | 1.56 | -45.4 | 953 | -46.8 | 983 | -27.5 | 885 | -54.7 | 1060 | -36.2 | 1020 | -24.1 | 973 | 5.71 | 950 | 23.6 | 689 | -5.38 | 1030 | 14.2 | MFI [11]: 803; % Blocking [12]: 100%; MFI [12]: 0; % Blocking [13]: 7.39%; MFI [13]: 734; % Blocking [14]: 22.9%; MFI [14]: 854
2 | B2 | 0.6 | 28.8 | 467 | 46.8 | 356 | 48.3 | 359 | 100 | 0 | 25.7 | 557 | 40.2 | 469 | 0.2 | 1010 | -4.76 | 944 | -6.83 | 1040 | 1.62 | MFI [11]: 921; % Blocking [12]: 6.44%; MFI [12]: 829; % Blocking [13]: 1.66%; MFI [13]: 780; % Blocking [14]: 2.87%; MFI [14]: 1080
3 | B3 | 0.48 | 13.5 | 567 | 26.7 | 491 | 42.4 | 399 | 16.2 | 572 | 36.7 | 475 | 45.9 | 424 | -8.07 | 1090 | -7.68 | 971 | -9.94 | 1070 | 8.25 | MFI [11]: 859; % Blocking [12]: 2.39%; MFI [12]: 865; % Blocking [13]: -7.83%; MFI [13]: 855; % Blocking [14]: 0.77%; MFI [14]: 1100
4 | B4 | 0.43 | 100 | 0 | 45.8 | 363 | 48.2 | 359 | -61.4 | 1100 | 45.1 | 411 | 47.3 | 413 | -12.2 | 1130 | -13.3 | 1020 | -4.04 | 1020 | -3.67 | MFI [11]: 971; % Blocking [12]: 0.97%; MFI [12]: 878; % Blocking [13]: -7.83%; MFI [13]: 855; % Blocking [14]: -7.57%; MFI [14]: 1190
5 | B5 | 0.74 | 36.5 | 416 | 37 | 422 | 100 | 0 | 34.6 | 446 | 38.8 | 459 | 45.5 | 427 | -1.1 | 1020 | -4.37 | 941 | -7.35 | 1050 | 7.12 | MFI [11]: 870; % Blocking [12]: -2.68%; MFI [12]: 910; % Blocking [13]: -10.2%; MFI [13]: 874; % Blocking [14]: 3.05%; MFI [14]: 1070
